Results: patent publication US11208498B2, “Treatment and prevention of cancer using HER3 antigen-binding molecules” (Hummingbird Bioscience Holdings Pte. Ltd., priority 2019, dated 2021)

How the values were obtained:
human HER3 = human HER3 (Homo sapiens, UniProt P21860); test: Global affinity study by Bio-Layer Interferometry (Octet QK384); assay type: binding; details: HER3 unbound, 'closed' conformation
Experimental: The anti-HER3 antibody clones in IgG1 format were analysed for binding affinity to human HER3.
Bio-Layer Interferometry (BLI) experiments were performed using the Octet QK384 system (ForteBio). anti-Human IgG Capture (AHC) Octet sensor tips (Pall ForteBio, USA) were used to anti-HER3 antibodies (25 nM). All measurements were performed at 25° C. with agitation at 1000 rpm. […] Sensograms were referenced for buffer effects and then fitted using the Octet QK384 user software (Pall ForteBio, USA).
(§1) Binding of anti-HER3 antibodies to human HER3 was evaluated by BLI. Briefly, anti-Human IgG Capture (AHC) sensors (ForteBio) were loaded with anti-HER3 IgG antibodies (25 nM). Kinetic measurements were performed in absence or presence of NRG1. NRG1 was used at 1:1 molar ratio with HER3 wherein the complex was allowed to form at RT for 2 h. His-tagged human HER3 or HER3-NRG1 complexes were loaded to antibody coated AHC sensors at different concentrations for 120 s, followed by a 120 s dissociation time. All measurements were performed at 25° C. with agitation at 1000 rpm. Sensorgrams were referenced for buffer effects and then analyzed using the Octet QK384-software (ForteBio). Kinetic responses were globally fitted using a one-site binding model to obtain values for association (Kon), dissociation (Koff) rate constants and the equilibrium dissociation constant (KD).

[1] = biological target: human HER3: human NRG1 complex (Homo sapiens, UniProt P21860); test: BLI binding to HER3 in ligand-bound 'open' conformation; details: NRG1 at 1:1 molar ratio with HER3
Experimental: In further experiments, anti-HER3 antibodies were analysed in order to determine the affinity of binding to human HER3 in the context of a human HER3: human NRG1 complex (that is, HER3 provided in the ligand-bound, ‘open’ conformation), as compared to the affinity of binding to human HER3 in the absence of NRG1 complex (that is, HER3 provided in the unbound, ‘closed’ conformation).
as §1

human EGFR = biological target: T1, human EGFR (Homo sapiens, UniProt P00533); test: ELISA for antibody specificity: human EGFR (HER1); assay type: binding
T1 construct: purchased Sino Biological Inc., China
Experimental: ELISAs were used to determine the binding specificity of the antibodies. The antibodies were analysed for binding to human HER3 polypeptide, as well as respective mouse, rat and monkey homologues of HER3 (Sino Biological Inc., China). The antibodies were also analysed for their ability to bind to human EGFR and human HER2 (Sino Biological Inc., China).
ELISAs were carried out according to standard protocols. Briefly, 96-well plates (Nunc, Denmark) were coated with 0.1 μg/ml of target polypeptide in phosphate-buffered saline (PBS) for 16 h at 4° C. After blocking for 1 h with 1% BSA in Tris buffer saline (TBS) at room temperature, the anti-HER3 antibody was serially diluted with the highest concentration being 10 μg/ml, and added to the plate. Post 1 h incubation at room temperature, plates were washed three times with TBS containing 0.05% Tween 20 (TBS-T) and were then incubated with a HRP-conjugated anti-His antibody (Life Technologies, Inc., USA) for 1 h at room temperature. […] The reaction was stopped with 2M H2SO4, and OD was measured at 450 nm.
The antibodies were analysed for their ability to bind to human HER3 polypeptide as well as human HER1 (EGFR) and human HER2 (Sino Biological Inc., China). […]
ELISAs were carried out according to standard protocols. […] The reaction was stopped with 2M […], and OD was measured at 450 nm.

[2] = test system: HER3 extracellular domain; test: Epitope mapping with overlapping 15-mer peptides; assay type: binding, human
Experimental: The epitope for 10D1 was mapped using overlapping 15-mer amino acids to cover the entire HER3 extracellular domain. Each unique 15-mer was elongated by a GS linker at C and N-terminals, conjugated to a unique well in 384 well plates, and the plates were incubated with 0.1, 1, 10 and 100 ug/ml of 10D1 antibody for 16 hrs at 4° C. The plates were washed and then incubated for 1 hr at 20° C. with POD-conjugated goat anti-human IgG. Finally POD substrate solution was added to the wells for 20 min. before binding was assessed by measurement of chemiluminescence at 425 nm using a LI-COR Odyssey Imaging System, and quantification and analysis was performed using the PepSlide Analyzer software package. The experiment was performed in duplicate.

His-tagged human HER3 = His-tagged human HER3 (Homo sapiens, UniProt P21860); test: BLI competition between anti-HER3 antibodies for binding to HER3
Experimental: Bio-Layer Interferometry (BLI) experiments were performed using the Octet QK384 system (ForteBio). anti-Penta-HIS (HIS1K) coated biosensor tips (ForteBio, USA) were used to capture His-tagged human HER3 (75 nM; 300 s). […] The variable region of LJM-716 antibody was cloned in the PDZ vector having human IgG1 and IgKappa Fc backbone.
BLI experiments were performed as described in Example 3.5 with one alteration: 400 nM of competing antibodies were used. The variable regions of M-05-74 and M-08-11 antibodies were cloned in the PDZ vector having human IgG1 and IgKappa Fc backbone.

[3] = test system: intracellular signalling pathways in FaDu cells; test: Phosphoprotein Antibody Array, FaDu cells; assay type: cell-based; details: 50 μg/ml antibody 4 hrs, NRG 100 ng/ml 15 min
Experimental: In further experiments the inventors investigated the intracellular signalling pathways affected by anti-HER3 antibody-mediated inhibition of HER3.
FaDu cells were seeded in wells of a 6 well plate with 10% serum at 37° C., 5% CO2. After 16 hrs, cells were starved by culture overnight in 1% FBS cell culture medium. On the following day cells were treated with 50 μg/ml anti-HER3 antibody 10D1 for 4 hrs, followed by 15 min stimulation with NRG (100 ng/ml). Proteins were then extracted, quantified using standard Bradford protein assay, and incubated overnight with pre-blocked Phosphoprotein Antibody Array membrane (Ray Biotech) at 4° C. The membrane was then washed with washing buffer and incubated with detection antibody cocktail for 2 hrs at room temperature, followed by washing and incubation with HRP-Conjugated anti-IgG. After 2 hrs the membrane was washed and probed using the kit detection buffer. Images were captured with Syngene Gbox imaging system, the intensity of each dot/phosphoprotein was measured and percent inhibition was calculated by comparison with intensity measured for cells treated in the same way in the absence of the antibody.

LJM716: anti-HER3 antibody clone described in Garner et al., Cancer Res (2013); epitope across domains II and IV [reference compound]
affinity of binding to human HER3 in the absence of NRG1 (human HER3): subpicomolar affinity | affinity of binding to human HER3 in the presence of NRG1 [1]: dramatically reduced

B1: 10D1F: clone with VH SEQ ID NO:36 and VL SEQ ID NO:83; b369 means 10D1F.A, b1087 the mIgG2a format (antibody, V domains shown)
VH: QVQLQESGPGLVKPSQTLSLTCTVSGYSITSGYSWHWIRQHPGKGLEWIGSIRYSGGTDYNPSLKSLVTISADTSKNQFSLKLSSVTAADTAVYYCARMTTAPWYPFDYWGQGTTVTVSS
VL: DIQMTQSPSSVSASVGDRVTITCKASQIVGSNVAWYQQKPGKAPEPLIYSASYLYSGVPSRFSGSGSGTDFTLTISSLQPEDFATYYCQQYSSHPLTFGQGTKLEIK
modifications: 10D1_c89 heavy chain variable region; 10D1_c89 light chain variable region
notes: b369 means 10D1F.A, b1087 the mIgG2a format
affinity of binding to human HER3 in the absence of NRG1 (human HER3): sub-picomolar affinity | affinity of binding to human HER3 in the presence of NRG1 [1]: sub-picomolar affinity

B2: 4-35-B2: anti-HER3 antibody clone, VH SEQ ID NO:127, VL SEQ ID NO:135 (antibody, V domains shown)
VH: EIQLQQSGPELVKPGASVKVSCKASGYSFTDYNMYWVKQSHGKSLEWIGHINPYNGGTTYNQKFKGRATLTVDKSSSTAFMHLNSLTSEDSAVYFCVSLRWGAMDYWGQGTSVTVSS
VL: QIVLTQSPALMSASPGEKVTMTCSASSSVSYMYWYQQKPRSSPKPWIYLTSNLASGVPARFSGSGSGTSYSLTISSMEAEDAATYYCQQWNSNPYTFGGGTKLEIK
modifications: 4-35-B2 heavy chain variable region; 4-35-B2 light chain variable region
binding to human EGFR (human EGFR): found to bind

B3: 10D1: parental mouse anti-HER3 antibody clone, VH SEQ ID NO:24, VL SEQ ID NO:74, human IgG1 chimeric (antibody, V domains shown)
VH: DVQLQESGPDLVKPSQSLSLTCTVTGYSITSGYSWHWIRQFPGNKLEWMGSIHYSGGTNYNPSLKSRISITRDTSKNQFFLQLNSVTTEDTATYFCARMTTAPRYPFDYWGQGTTLTVSS
VL: DIVMTQSQKFMSTSVGDRVSVTCKASQIVGSNVAWYQQKPGQSPKPLIYSASYRYSGVPDRFTASGSGTDFTLTITNVQSEDLAEYFCQQYSSHPLTFGAGTKLELK
modifications: human IgG1 constant regions; 10D1 heavy chain variable region; 10D1 light chain variable region
location of epitope relative to β-hairpin of HER3 dimerisation arm [2]: at a dimerisation interface N-terminal to the β-hairpin | site of HER3 bound ([2]; positions of human HER3 SEQ ID NO:1, region SEQ ID NO:229): positions 218 to 235 | epitope of HER3 relative to MM-121 and/or LJM-716 (His-tagged human HER3): distinct and topologically distant epitope | PI3K/AKT/mTOR and MAPK signalling [3]: inhibit PI3K/AKT/mTOR and MAPK signalling
